Here are results for three molecules from patent US20230183342A1 (YISSUM RESEARCH DEVELOPMENT COMPANY OF THE HEBREW …, published 2023).

For test [1], the target named is T1, Acro Biosystems Human NKp46 expressed in HEK293 cells (human, UniProt O76036 22-258).
T1 construct: Bought antigen coated on the ELISA plate
Nature of the test: ELISA titration on coated Acro Biosystems human NKp46, anti-human kappa-HRP, absorbance at 450 nm; given as affinity. How it is done: The binding of the humanized antibodies with mutated IgG4 to cells expressing NKp46 was examined. The experiments were performed as follows: [0300] 1. Coat tested in a matrix of 3 conc. vs. 3 buffers to find optimal signal. [0301] 2. Optimal signal conditions were used to coat the ELISA tray, using standard blocking and washing steps. [0302] 3. Primary antibody applied in range of concentrations with 10-dilutions (MAbs with humanized variable + mutated IgG4). [0303] 4. Secondary Ab used to detect binding was Anti-Hu Kappa with HRP (TMB sub strate). [0304] 5. Absorbance measured at 450 nm.
The antigen was Acro Biosystems Human NKp46 that was expressed in HEK293 cells.
On the technique in general: ELISA stands for enzyme-linked immunosorbent assay.

The next test addresses T2, NKp46 D1 domain-Ig (human, UniProt O76036 22-120).
T2 construct: domain: D1; also called D1-Ig; Ig-D1; not shown: Ig part not described for this construct
Put plainly: ELISA, D1-Ig plated at 0.1 ug/well, biotin anti-mouse / streptavidin-POD / TMB, OD 650nm. How it is done: To identify the binding site of the anti-NKp46 mAbs, Ig-D1, Ig-D2 and Ig-NKp46 were plated at 0.1 µg/well. The plate was placed at 4° C. overnight. The next day blocking was performed (blocking buffer is PBSx1, 0.05%Tween-20, and 5% BSA) followed by addition of the mAbs at 0.1 µg/well and 10 µl/well of SN antibodies (both diluted in blocking buffer to a final volume of 100µl). The plate was placed at 4° C. overnight. The next day, biotin anti-mouse was added (diluted in blocking buffer), followed by streptavidin-POD (diluted in blocking buffer), and with TMB for detection of samples at OD650nm.

The term Kd denotes the constant that tells how readily two partners part at equilibrium. A low value points to a tighter complex.

T1 sequence (O76036 22-258 limits assumed): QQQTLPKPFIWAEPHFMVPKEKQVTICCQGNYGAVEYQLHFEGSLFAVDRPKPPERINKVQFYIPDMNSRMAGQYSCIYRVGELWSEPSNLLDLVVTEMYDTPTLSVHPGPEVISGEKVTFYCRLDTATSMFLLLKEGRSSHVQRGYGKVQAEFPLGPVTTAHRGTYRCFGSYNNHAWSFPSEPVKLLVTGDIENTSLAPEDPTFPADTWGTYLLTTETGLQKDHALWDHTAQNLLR
T2 sequence (O76036 22-120): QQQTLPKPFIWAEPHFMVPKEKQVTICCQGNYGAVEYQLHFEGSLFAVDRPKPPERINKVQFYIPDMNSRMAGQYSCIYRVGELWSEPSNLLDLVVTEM

B1: humanized P4 antibody having mutated IgG4 (antibody, V domains shown)
VH: EVQLQQSGAEVKKPGSSVKVSCKTSGYTFTEYSMHWVRQAPGKSLEWFGGISPNSGGTSYNQKFKGRATLTVDKSSSTAYMELSSLRSEDTAVYYCARRDFHSSFDYWGQGTTVTVSS
VL: DIVMTQSPATLSLSPGERATLSCRASQSISDYLHWFQQKPHESPRLLIKYASQSISGIPARFSGSGSGSDFTLTISSLEPEDFAVYYCQNGHSFPLTFGPGTKVDIK
notes: detected with an anti-human kappa secondary antibody
On to B1, for which binding in test [1] was put at a Kd of 0.0205 nM. This counts as picomolar.

B2: humanized K3 antibody having mutated IgG4 (antibody, V domains shown)
VH: EVQLQQSGAEVKKPGSSVKVSCKTSGYTFTEYSMHWVRQAPGKSLEWFGGISPNSGGTSYNQKFKGRATLTVDKSSSTAYMELSSLRSEDTAVYYCARRDFHSSFDYWGQGTTVTVSS
VL: DIVLTQSPATLSLSPGERATLSCRASQSISDYLHWFQQKPHESPRLLIKYASQSISGIPARFSGSGSGSDFTLTISSLEPEDFAVYYCQNGHSFPLTFGPGTKVDIKR
notes: as for B1
On to B2, for which, in test [1], the Kd turned out to be 0.027 nM.

B3: anti-NKp46 monoclonal antibody clone K3 (antibody, V domains shown)
VH: EVQLQQSGPELVKPGTSVKISCKTSGYTFTEYSMHWVKQSHGKSLEWFGGISPNSGGTSYNQKFKGKATLTVDKSSSTAYMELRSLTSEDSAVYYCARRDFHSSFDYWGQGTTLTVSS
VL: DIVLTQSPATLSVTPGNSVSLSCRASQSISDYLHWFQQKSHESPRLLIKYASQSISGIPSRFSGSGSGSDFTLSINSVEPEDVGVYYCQNGHSFPLTFGPGTKLELK
As for B3, the binding result in the test with NKp46 D1 domain-Ig is reported as “no binding”.
